Biological target: D04-his tagged VHH (humanized D04)
Test: Octet (BLI), anti-idiotype VHH-Fc vs his-tagged VHH; table title prints B11-his, paragraph 353 ties these values to D04

Response: 0.0062 | koff: < 1e-07 s⁻¹ | kon: 2160 M⁻¹ s⁻¹
B1: AMD71 (huB11_CNTY3+4_A02 anti-idiotype VHH IgG1-Fc fusion) (Fc fusion, not shown: a dimerising Fc or GST)
chain: EVQLLESGGGLVQPGGSLRLSCAASGRTYTGSAMGWYRQAPGKERELVSAISTGGETYYADSVKGRFTISRDNSKNTLYLQMNSLRAEDTAVYYCAAGYVGLPYTYRPATSRRGYTYWGQGTQVTVSS
